{"source": "paper PMC5519984", "origin": "cited, not measured here", "key": {"[1]": {"target": "Ras (Homo sapiens) (UniProt P01112)"}, "[2]": {"target": "Ras (Homo sapiens) (UniProt P01112)", "remark": "listed apart in the source"}}, "note": "Where two headings read alike, the source gives them in different places.", "data": [{"substance": "HBS3 929-944 (from UniProt Q07889)", "values": [{"measurement": "Kd", "setting": "[1]", "value": 158, "unit": "µM"}, {"measurement": "Kd", "setting": "[2]", "value": 28, "unit": "µM"}]}]}
